Test: soluble on expression in E. coli; label from the status in PepcDB or PDB records

Soluble on expression in E. coli, not soluble:
MGSDKIHHHHHHLSFIIRKALLTDVAAIVQLERAHVDDELLGSNSQLHAHSFTKSEVSQLINQHWFIVAEEQGVIIGYVMAAKWSFFSAQPLYRHIIQKLKFADLQGQALSTTNTCQYGPVWIQESKRGQGVFSALVTELKKQVADTFPFMVTYVAADNARSLAAHQQKAAMTEIDQFSFEQRDYCLLATTNIT
MGSDKIHHHHHHLSTSQPAEPGDEIARLGALAADFRRRLELDPGAIYPAHAECLWRLGNLQIAQGDVEAGLLSISDSVGLYRAIAQAQPDSYAVQLASLLNSQSNMLAEASHLEEARAIASDAVEHARSAMDDYGDQARFVLVSALINLAGLKMRSGDTAGTVDELAQAVEVFRDGGTAGQPFLGSMVEALHRAAMAFTEVGLWNEAIDTRRLLIGLFGQAPPSAVVQLLMLTLQQASVGLAGTGDTAKALVHANEAVDLARMLFAADGQANRLALAQAVGNLAGRHHDAGSLKEALDLSLEAVDLFQDAVSMDPIHAVPSLIVTLDCMASILTALGLPDQAATVREQRSQLQETLEIIAPRAN
MGSDKIHHHHHHMAAFTTTDGLRLFYEDEGTGQPLLCLAGLTRCSRDFEFLRPHVTDLRLIRLDYRGRGQSDYDPDYRNYNVLREAHDVIELLDHLGLDRVTVLGTSRGGMIAMALAASHPDRLAGVILNDVGPVIEPAGIARIMDYVGKKPVSKTHDQAALALKQAMEPQFPGVPLSVWRKQAEIQYAASDQGLALRYDDGLHKALLDQAATGAIPDLWLFFEALRDIPTAVLRGANSDILGAGTVAEMHRRHPGLISAEVPDRGHVPFLDEPQSLDLIRRILETA
MGSDKIHHHHHHMAAIPTYKLYGEKTEVSGEFLLHCETLFSRSSLYRFEIDLHRHENFLQILYISEGQGDATLDGKVIAITPPAAIVVPPLFSHGFRFSRSIKGMIITVLPAALPLAVRTSLKQALPLPLHMPLEGEPCAIEISLLMERIADEYAGAKPGRNGLLEAYLATVVLLLARQAAPDASQDLMTLTANDRRMEKLAALIAANFRSHKTAAFYAREMGLSPTHLNRLAKAGTGATLQQLIARKQLEIAQQELIFSQTSIQAIALNHGFTDPAYFTRFFTRETGLTPRAWRLAERQKLQNLSDRAQAEISAATASE
MGSDKIHHHHHHMAAKKKSASSRKLNLGCGRDIREGWINLDSMALPGVDVVADLSLCATTPLPFEDSSIDEFLLSHLIEHIPDPLPLMQELWRIAKPGAKMQIRVPHGAHDDAWTNPTHVKPYFARSFGYFSQPWYWRADYGYRGDWQPELVTYSVPRRRFAGQMPAQILEQIDALRNVVQEMIVDLVAVKPLRQPKKDLMQAANIKIALME
MGSDKIHHHHHHMAARNDDKYRGDTENKGFWTIDFGRSPVIGTAIHDGHFIRSDIASLMALSPEQRLREEDPFTGEMIARLTNRLVVHHSRFEIDLNRAADQAIYLKPEQSWGLEVWSEEPSQDAVRHSLDFHADYYAMLESVLSSVERRHGPFVVLDVHSYNHRRQGAGEPPTAQAEAPDINIGTFSMDRSRWNDVVSAVGEHFASATIGGRRLDVRENVAFQGKGEQTRFIHERFAENGCAIAIEFKKFFMDEWTGEPDRRVVSDIRETIAALQPVLEECLRSR
MGSDKIHHHHHHMADNFLSQDEVDALLKGVSGEVDDAPQEAVDTGGPRPYNLATQERIVRGRMPTLEIINERFARLLRIGLYNFLRRGVEISVGPVRVSKYSEFIRNLVVPTNLNLVQFKPLRGTALMIFNPDLVFLMVDNLFGGDGRFHTRVEGRDFTQTEHRIIQRILNIVFEAYGKSWEPVYPIEFEFIRSEMNTQFANIATPNEVVVAVTFAIELGQISGEMHFCMPYSMIEPIKDLLTSSLQAENLEVDKRWIRLMRQQIQLAEVEIVADLGTAEVSLRDIVNLKVGDVIPLDIPPTIEAKVDGVPVMECAYGKFNGQYTLRVEKLLSTSAVEPKTGEQHV
MGSDKIHHHHHHMAEKPISLSQAPAGYSDWLSELKTKIHSAQQRATLAVNQELVLLYWQIGQEILTRQAELGWGAKVVERLAHDLRTAFPDMKGFSPRNLKYMRAFAEAWPDLEFVQALLAQLPWYHQLALLDKLDNTDSRTWYAQKALENHWSRNVLVMHIESGLHQRQGAAITNFAATLPKPQSDLARESIKDPYRFDFLGLTEAAQEREIEHALVQHVTQFLLELGAGFAFVGRQVLMQVGDEEFFIDLLFYHLKLRCYVVIELKTGKFKPEHLGQLSFYMTAIDKQVKTEPDNATIGLLLCKSKDKVVAEYALGDKSQAMGIAEYKLQQALPEVLESNLPSIEQIERELQGEA
MGSDKIHHHHHHMAEKTFINRLQLTDFRNYGSASLRLDGRHVVLTGNNGSGKTNLMEAVSFLSPGRGLRRAVLSDVARAGAASGFSIFASLEGMAGDVELGTGSEVLDETAVRRLRINGASVRSVDELTDHLRVLWLTPAMDGLFTGSSSERRRFLDRLVLSIDPQHGRRASDFERAMRSRNKLLSEGRFDASWLAGIEQQMAALGIAMALARQEMMRLLAALIEQRREPETFPGADLMLSGFMDEHAGTAAIDLEDTYRDSLAGSRGRDAAAGRTLEGPHRSDLLVRHREKDMEAERCSTGEQKALLIGLILAHAELVATMTGFAPILLLDEIAAHLDEGRRAALFDRIDVLGGQAFMTGTDAQMFASLGDRAQFVTVDDGHLSL
MGSDKIHHHHHHMAERLGILVGGGPAPGINSVISSVTIEAINNGLEVIGIYDGFKHLVEGKTNMVKKLSIEDVSRIHIEGGSILRTSRVNPAKSEETLEKTVQTLKKLGIKYLVTIGGDDTAFSASKVCERSKGEIKVVHVPKTIDNDLPLPENMPTFGFETARHVATELVYNLMQDSRTTNRWYFVAMMGREAGHLALGVGKAASATITIIPEEFKEGVTLEEVCDVLDGAILKRKLMGRDDGVAVIGEGIAEKMDPEELANIPGVIVEKDPHGHLRLAEIPLATILKRAIERRYAERGERIHIVDVTIGYELRSARPIPFDIVYTRTLGYGAVRFLLGDYSDLPGGMVCVVGGRIKILPFDAFMDPKTGRTKVRVVDVRSEDYRVARKYMIRLEKKDLEDPETLEKLAKLAKMEPEEFKKKYWHTTELP
MGSDKIHHHHHHMAESETGDKAGQASVKTALRVIEIMEIYAREGRSLTLTELAKLLGAPMSSCLGLIRTLASLGYLYETGRRQGYYPTSRLLNIAQRISRNDPLLERVQPVLETLRDATGETVIFGKLQDDGRVLYLEVRESQNPVRYTATPGELRDVHINSIGRAILGAMTDAARDAALAKVSFQPRTGRTVASREALEREIAMWQQQGWYPNFGESFPDLGAIAVPVEIGGAVYGMSVAGPIHRVESSVDPIVAALLRGQDALRT
MGSDKIHHHHHHMAFTESDVYNNEAFFEQYMKRRYRENSPNEALEKPAFFQLISDVKGKRILDLGCGDAKFGEELLEKGCHSYTGIEGSELMYEKAKKQLENKNGAVHFLNLKDYTYPPSTFDLVTSRLALHYIEHLPIIFQNVYETLKTNGTFTFSVQHPIITSSFESLQTSGKRTSWLVDDYFKLGKRVEPWIDQEVIKYHRTTEEYFTLLQQAGFTITNLKEATPDQTYFQNAEEYERRLRIPLFLLFSCRK
MGSDKIHHHHHHMAKERVDVLLVEQGLFDTREKAKRAVMAGEILGDNEERLDKPGVKIDPSVKLHLKGKPMPYVSRGGLKLEKALKVFGLDVKGLTVLDIGSSTGGFTDVMLQNGAKLSYALDVGTNQLVWKLREDPRVVVMENTNFRYSKLEDFTEGQPEFASIDVSFISLKLILPALKNIIKTHGSVVSLIKPQFEAGRENVGKHGIVRDRKVHEEVLKNVLAMANAEGFNVKGLDFSPIKGGEGNIEFLAWLERSDTDQGVIEENVDTQKVIDSAYSNLNS
MGSDKIHHHHHHMAKPLFDQLLASAQQARAPFHTPGHKLGRAIATHLQQAWGSAIFQSDLPELPELDNLYAASGVLAESQAQAAEVFGADRSWFLVNGSTGGLLAAILTICSPGDRLLLPRNAHRSLLSGCILSGAMPVWITPPEAADFDLVGVPTPEQVATALAQDPQIKAVVLVSPTYEGVCADVAAIAAIAHNHNLPLIIDAAHGAHLGFHPDLPRSPLHEGADLVVQSTHKLLGALTQAAMLHCKGDRIDPERLSQSLALVQSSSPSYLLLASLEAATEQMRTSAQDLLQVTIDLARQAHQRLAELPGLQLPALKIGNREGFPQWDRTRLVINFQSCGWSGFCADEYLHEQWQVTAELPSLSNLVFHLSLGNRIEDIDRLVTACDRLLSQEHQEELPPRLPVWLEPETILSPRQAWFSRHQTVSAEQAIGAIAAECVCPYPPGIPVLLPGERISKSAVDYLRQVQTTGGILSGCADPELTTLRIVQDSDTIHASCLS
MGSDKIHHHHHHMAKSSLGQDSDSTAAVAVLKRAVELDAESRYQQALVCYQEGIDMLLQVLKGTKESSKRCVLRTKISGYMDRAENIKKYLDQEKEDGKYHKQIKIEENATGFSYESLFREYLHETVTEVWIEDPYIRQTHQLYNFLRFCEMLIKKPCKVRTIHLLTSGYEGLGNTQQSSGLEEIKQSLGSHGVVLEINYSSSIHDREIRFNNGWMIKIGRGLDYFKKPQGRFSLGYYDLDLRPCHETTVDIFHNKHTKKI
MGSDKIHHHHHHMAKVPAKAKPEHALLAVPRELMPRDLRVSLHDYTRGGTDRFLTNGQGAKQDMTGFEDQYVNIIDYIVRITHRIWEEKDIGYIYDTYAHNCRVWDDVGLQYGRDKIVADTTHTINAFPDVKLYADEVIWAGDAEHGFHTSHRTVIKGTNTGFSRWGPPTMRPVNVWCIANCVARENEIFEEHVQYNLGAMLQQLGFDLRALAATARAIGIETDPLFAASGRTRVPGQGKPAHGTPRGDGPFDVADFLCSMTQDVWNRRMLSRLTRAYAPALNYQGPTNRSYRSLAQYQSALLSLLAMFPDLSFEPEALYYMEDGKGTTWSSLRWSATGSHGGFGPYGTPTGREVRIWGITQHKIEGETITEEWMQFNEFDLLRQLAPDPVV
MGSDKIHHHHHHMAKYLYGRRVKLVLLTPHESVTFDYKQTETHSMGIQFNVPFSDSSTPPTCTVTIMNLSAKHRKLFKKGYEVKLYAGYAEDGVGLLSAGVIRAISPFTSDGTNNTFSFTYREGQEYSKLLSSAEKANKKADEARKKKAKVIGKKAAAGLPKIKKHSALSFGKNTAASTIIRRIASDAGITLSKVYLAKPKKYKKGYAAHGKPITNIKAIAKACGSKVYYRRGSIVIDDLSKVKGHNEHILVTEHVKGRHGGTGLIQYPTTDSDSMAKHKTWTVTSLLRYQVSTGSVVTVENRFLKGTFRVKSGEHVCDDSAFTTAMEVYV
MGSDKIHHHHHHMALALTLREYEFSVLLLEARELPEKVDDPRPLALSYGSRLILQRLDIWKNLTQPAPITTIHISNRGHFGHAVLTPDDAGVPALGYVVNYHDLYHSMGRAIRGSNAVYQTNALVTAIRTDLSLAQVAYQQGSTTRQVRARLLVLADGGKLAEQIDGVRYHTYDYQQTAIVANVKVESPRPGTAFERFTLNGPLALLPSGEGYALVWTMPAAAAEKILKLDDRSFLLHLHEQFGDRMGEFTHVGPRSSFPLILKHASTITGHRAVLIGNAAQALHPVAGQGFNLGLRDAWELASEISRIPSGTPGEPGSTRMLAAYSRRRQSDKRISRLFTDSLVKLFTADLPLVQTCSGMGLAALDNLPPARRLIAHQMIFGTKGWFIG
